Target: T1, HA-tagged ubiquitin-Vinyl Sulfone (UniProt P0CG48 1-76, vinyl sulfone (position not given))
T1 construct: ubiquitin, the mature cut product of a ubiquitin precursor, carrying a vinyl sulfone warhead; Commercial active-site probe; also called HA-UbVS; HA-Ub-VS; source: bought: Boston Biochem
Test: active-site-directed covalent labelling with HA-UbVS; purified 26S proteasomes (25 nM) incubated with HA-UbVS for 1 h at 37°C, boiled in reducing sample buffer, SDS-PAGE, HA immunoblot; without Aur, and after 2 μM Aur for 10 min (labelling reduced)
Conditions: both partners purified

binding result: binds
B1: UCHL5 (enzyme, human, UniProt Q9Y5K5 1-329, looked up)
chain: MTGNAGEWCLMESDPGVFTELIKGFGCRGAQVEEIWSLEPENFEKLKPVHGLIFLFKWQPGEEPAGSVVQDSRLDTIFFAKQVINNACATQAIVSVLLNCTHQDVHLGETLSEFKEFSQSFDAAMKGLALSNSDVIRQVHNSFARQQMFEFDTKTSAKEEDAFHFVSYVPVNGRLYELDGLREGPIDLGACNQDDWISAVRPVIEKRIQKYSEGEIRFNLMAIVSDRKMIYEQKIAELQRQLAEEEPMDTDQGNSMLSAIQSEVAKNQMLIEEEVQKLKRYKIENIRRKHNYLPFIMELLKTLAEHQQLIPLVEKAKEKQNAKKAQETK
notes: UCHL5/Uch37, human, deubiquitinase associated with the 19S regulatory particle, present in purified 26S proteasomes; It stood in the assay as a component of the bought 26S proteasome and was resolved as a labelled band on SDS-PAGE; PDB 3RIS was used only for docking of the small molecule; also called UCHL5/Uch37; source: bought: Boston Biochem, as part of purified human 26S proteasomes
